# Measurements as given in article PMC7611331 (Nature microbiology, 2019).
# T1: native FtsZ (Streptococcus pneumoniae R800, UniProt A0A0H2ZNE0 1-419)
# T1 sequence (looked up): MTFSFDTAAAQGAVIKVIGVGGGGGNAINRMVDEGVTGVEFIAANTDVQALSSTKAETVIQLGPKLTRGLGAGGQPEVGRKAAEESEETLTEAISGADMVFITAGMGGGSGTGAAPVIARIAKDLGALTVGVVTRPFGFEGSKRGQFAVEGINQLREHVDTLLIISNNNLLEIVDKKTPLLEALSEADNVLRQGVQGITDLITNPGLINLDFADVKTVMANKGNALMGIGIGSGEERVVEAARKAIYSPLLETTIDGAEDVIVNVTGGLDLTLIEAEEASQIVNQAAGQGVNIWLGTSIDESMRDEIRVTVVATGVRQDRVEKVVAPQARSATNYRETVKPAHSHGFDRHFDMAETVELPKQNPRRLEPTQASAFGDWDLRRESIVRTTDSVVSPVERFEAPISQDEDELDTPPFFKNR
# B1: RocS-ΔAH-6His (domain or fragment, Streptococcus pneumoniae R800, UniProt Q8DQ15 1-150, looked up)
# chain: MSIEMTVSEIAEVLGLSRQAINNRVKELPEEDTDKNDKGVTVVTRSGLIKLEEIYKKTIFEDEPVSEDVKQRELMEILVDEKNAEILRLYEQLKAKDRQLSEKDEQMRIKDRQIAEKDKQLDQQQQLTLQAMKDQENLKLELDQAKEEVQ
# modifications: labeled with the red dye NT-647
# Target: T1, native FtsZ
# Experiment: MST
binder,measurement,value
B1,binding result,binds
